Measured values published in patent US20030229005A1 (BIOZYME, published 2003).
*1 amine or outer side, *2 acyl side, *3 side chain or, on linkers, in order; H or OH if unused. [ ]: non-standard residue; d: D form. The star is where a group is joined. Dnp = O=[N+]([O-])c1ccc(*)c([N+](=O)[O-])c1; C(Me) = CSC[C@H](N[*:1])C(=O)[*:2]

B1: Dnp-PINLHG-NH2 (peptide)
peptide: Dnp-PINLHG-NH2
SMILES: CC[C@H](C)[C@H](NC(=O)[C@@H]1CCCN1c1ccc([N+](=O)[O-])cc1[N+](=O)[O-])C(=O)N[C@@H](CC(N)=O)C(=O)N[C@@H](CC(C)C)C(=O)N[C@@H](Cc1c[nH]cn1)C(=O)NCC(N)=O
B2: Dnp-GPLQMRG-NH2 (peptide)
peptide: Dnp-GPLQMRG-NH2
SMILES: CSCC[C@H](NC(=O)[C@H](CCC(N)=O)NC(=O)[C@H](CC(C)C)NC(=O)[C@@H]1CCCN1C(=O)CNc1ccc([N+](=O)[O-])cc1[N+](=O)[O-])C(=O)N[C@@H](CCCNC(=N)N)C(=O)NCC(N)=O
B3: Dnp-GPHPMRG-NH2 (peptide)
peptide: Dnp-GPHPMRG-NH2
SMILES: CSCC[C@H](NC(=O)[C@@H]1CCCN1C(=O)[C@H](Cc1c[nH]cn1)NC(=O)[C@@H]1CCCN1C(=O)CNc1ccc([N+](=O)[O-])cc1[N+](=O)[O-])C(=O)N[C@@H](CCCNC(=N)N)C(=O)NCC(N)=O
B4: Dnp-GPLSISG-NH2 (peptide)
peptide: Dnp-GPLSISG-NH2
SMILES: CC[C@H](C)[C@H](NC(=O)[C@H](CO)NC(=O)[C@H](CC(C)C)NC(=O)[C@@H]1CCCN1C(=O)CNc1ccc([N+](=O)[O-])cc1[N+](=O)[O-])C(=O)N[C@@H](CO)C(=O)NCC(N)=O
B5: Dnp-GPLGMRG-NH2 (peptide)
peptide: Dnp-GPLGMRG-NH2
SMILES: CSCC[C@H](NC(=O)CNC(=O)[C@H](CC(C)C)NC(=O)[C@@H]1CCCN1C(=O)CNc1ccc([N+](=O)[O-])cc1[N+](=O)[O-])C(=O)N[C@@H](CCCNC(=N)N)C(=O)NCC(N)=O
B6: Dnp-GPRPFRG-NH2 (peptide)
peptide: Dnp-GPRPFRG-NH2
SMILES: N=C(N)NCCC[C@H](NC(=O)[C@H](Cc1ccccc1)NC(=O)[C@@H]1CCCN1C(=O)[C@H](CCCNC(=N)N)NC(=O)[C@@H]1CCCN1C(=O)CNc1ccc([N+](=O)[O-])cc1[N+](=O)[O-])C(=O)NCC(N)=O
B7: Dnp-…(Me)-NH2 (peptide)
peptide: Dnp-GPVNLHGR[C(Me)]-NH2
SMILES: CSC[C@H](NC(=O)[C@H](CCCNC(=N)N)NC(=O)CNC(=O)[C@H](Cc1c[nH]cn1)NC(=O)[C@H](CC(C)C)NC(=O)[C@H](CC(N)=O)NC(=O)[C@@H](NC(=O)[C@@H]1CCCN1C(=O)CNc1ccc([N+](=O)[O-])cc1[N+](=O)[O-])C(C)C)C(N)=O
B8: Dnp-GPVNLHGC(Me)-NH2 (peptide)
peptide: Dnp-GPVNLHG[C(Me)]-NH2
SMILES: CSC[C@H](NC(=O)CNC(=O)[C@H](Cc1c[nH]cn1)NC(=O)[C@H](CC(C)C)NC(=O)[C@H](CC(N)=O)NC(=O)[C@@H](NC(=O)[C@@H]1CCCN1C(=O)CNc1ccc([N+](=O)[O-])cc1[N+](=O)[O-])C(C)C)C(N)=O
B9: Dnp-…(Me)YLG-NH2 (peptide)
peptide: Dnp-DEGPMGLK[C(Me)]YLG-NH2
SMILES: CSCC[C@H](NC(=O)[C@@H]1CCCN1C(=O)CNC(=O)[C@H](CCC(=O)O)NC(=O)[C@H](CC(=O)O)Nc1ccc([N+](=O)[O-])cc1[N+](=O)[O-])C(=O)NCC(=O)N[C@@H](CC(C)C)C(=O)N[C@@H](CCCCN)C(=O)N[C@@H](CSC)C(=O)N[C@@H](Cc1ccc(O)cc1)C(=O)N[C@@H](CC(C)C)C(=O)NCC(N)=O
B10: Dnp-GPINLHG-NH2 (peptide)
peptide: Dnp-GPINLHG-NH2
SMILES: CC[C@H](C)[C@H](NC(=O)[C@@H]1CCCN1C(=O)CNc1ccc([N+](=O)[O-])cc1[N+](=O)[O-])C(=O)N[C@@H](CC(N)=O)C(=O)N[C@@H](CC(C)C)C(=O)N[C@@H](Cc1c[nH]cn1)C(=O)NCC(N)=O
B11: Dnp-PSGIHL-NH2 (peptide)
peptide: Dnp-PSGIHL-NH2
SMILES: CC[C@H](C)[C@H](NC(=O)CNC(=O)[C@H](CO)NC(=O)[C@@H]1CCCN1c1ccc([N+](=O)[O-])cc1[N+](=O)[O-])C(=O)N[C@@H](Cc1c[nH]cn1)C(=O)N[C@@H](CC(C)C)C(N)=O
B12: Dnp-GPSELKG-NH2 (peptide)
peptide: Dnp-GPSELKG-NH2
SMILES: CC(C)C[C@H](NC(=O)[C@H](CCC(=O)O)NC(=O)[C@H](CO)NC(=O)[C@@H]1CCCN1C(=O)CNc1ccc([N+](=O)[O-])cc1[N+](=O)[O-])C(=O)N[C@@H](CCCCN)C(=O)NCC(N)=O
B13: Dnp-GPFGLKG-NH2 (peptide)
peptide: Dnp-GPFGLKG-NH2
SMILES: CC(C)C[C@H](NC(=O)CNC(=O)[C@H](Cc1ccccc1)NC(=O)[C@@H]1CCCN1C(=O)CNc1ccc([N+](=O)[O-])cc1[N+](=O)[O-])C(=O)N[C@@H](CCCCN)C(=O)NCC(N)=O
B14: Dnp-GPMSYNG-NH2 (peptide)
peptide: Dnp-GPMSYNG-NH2
SMILES: CSCC[C@H](NC(=O)[C@@H]1CCCN1C(=O)CNc1ccc([N+](=O)[O-])cc1[N+](=O)[O-])C(=O)N[C@@H](CO)C(=O)N[C@@H](Cc1ccc(O)cc1)C(=O)N[C@@H](CC(N)=O)C(=O)NCC(N)=O
B15: Dnp-PLGMRG-NH2 (peptide)
peptide: Dnp-PLGMRG-NH2
SMILES: CSCC[C@H](NC(=O)CNC(=O)[C@H](CC(C)C)NC(=O)[C@@H]1CCCN1c1ccc([N+](=O)[O-])cc1[N+](=O)[O-])C(=O)N[C@@H](CCCNC(=N)N)C(=O)NCC(N)=O
B16: Dnp-VC(Me)PKGITSC(Me)VFR-NH2 (peptide)
peptide: Dnp-V[C(Me)]PKGITS[C(Me)]VFR-NH2
SMILES: CC[C@H](C)[C@H](NC(=O)CNC(=O)[C@H](CCCCN)NC(=O)[C@@H]1CCCN1C(=O)[C@H](CSC)NC(=O)[C@@H](Nc1ccc([N+](=O)[O-])cc1[N+](=O)[O-])C(C)C)C(=O)N[C@H](C(=O)N[C@@H](CO)C(=O)N[C@@H](CSC)C(=O)N[C@H](C(=O)N[C@@H](Cc1ccccc1)C(=O)N[C@@H](CCCNC(=N)N)C(N)=O)C(C)C)[C@@H](C)O

target: T1, human Gelatinase-A (human, UniProt P08253 110-660, limits assumed); test: cell-based or functional assay
T1 sequence (looked up): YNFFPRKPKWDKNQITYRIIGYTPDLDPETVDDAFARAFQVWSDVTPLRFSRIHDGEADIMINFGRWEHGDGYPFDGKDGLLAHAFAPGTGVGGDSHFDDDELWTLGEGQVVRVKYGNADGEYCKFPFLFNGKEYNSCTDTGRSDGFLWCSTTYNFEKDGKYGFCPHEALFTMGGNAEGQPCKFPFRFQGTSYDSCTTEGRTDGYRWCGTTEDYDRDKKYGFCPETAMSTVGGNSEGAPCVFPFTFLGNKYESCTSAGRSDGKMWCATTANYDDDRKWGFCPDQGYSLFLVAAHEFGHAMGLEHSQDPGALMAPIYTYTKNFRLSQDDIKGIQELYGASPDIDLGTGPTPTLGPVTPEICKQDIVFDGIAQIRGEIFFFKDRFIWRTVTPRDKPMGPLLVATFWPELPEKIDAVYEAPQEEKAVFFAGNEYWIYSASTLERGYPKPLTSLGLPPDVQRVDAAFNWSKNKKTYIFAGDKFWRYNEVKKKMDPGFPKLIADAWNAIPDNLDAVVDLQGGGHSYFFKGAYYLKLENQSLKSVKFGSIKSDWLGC

Binder	Selectivity v. Coll-3 [unitless]	Selectivity v. Coll-3, + 1:1 Gelatin [unitless]	Selectivity v. Coll-3, + 1:4 Gelatin [unitless]	Selectivity v. Coll-3, + 1:16 Gelatin [unitless]	Selectivity v. Coll-3, + 1:64 Gelatin [unitless]	Selectivity v. Coll-3, + 1:256 Gelatin [unitless]	Selectivity v. Coll-3, + H2O [unitless]
B1	9						
B2	15						
B3	12						
B4	7						
B5		41	46	84	69	73	6
B6	9						
B7	9						
B8	15						
B9	9						
B10	28						
B11	2						
B12	7						
B13	26						
B14	5						
B15	2						
B16	7						

target: T2, collagenase 1 (UniProt P03956 100-469, limits assumed); test: cell-based or functional assay
T2 sequence (looked up): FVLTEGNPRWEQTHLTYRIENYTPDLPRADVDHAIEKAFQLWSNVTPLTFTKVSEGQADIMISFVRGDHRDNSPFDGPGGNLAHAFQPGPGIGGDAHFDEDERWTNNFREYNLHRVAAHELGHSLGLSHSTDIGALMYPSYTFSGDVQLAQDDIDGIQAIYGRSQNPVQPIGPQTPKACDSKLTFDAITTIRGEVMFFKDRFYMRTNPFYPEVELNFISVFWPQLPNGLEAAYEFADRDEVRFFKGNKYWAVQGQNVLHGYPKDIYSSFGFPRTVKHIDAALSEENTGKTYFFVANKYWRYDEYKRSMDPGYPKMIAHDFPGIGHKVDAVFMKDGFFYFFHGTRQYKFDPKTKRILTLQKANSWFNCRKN

Binder	Selectivity v. Coll-3 [unitless]	Selectivity v. Coll-3, + 1:1 Gelatin [unitless]	Selectivity v. Coll-3, + 1:4 Gelatin [unitless]	Selectivity v. Coll-3, + 1:16 Gelatin [unitless]	Selectivity v. Coll-3, + 1:64 Gelatin [unitless]	Selectivity v. Coll-3, + 1:256 Gelatin [unitless]	Selectivity v. Coll-3, + H2O [unitless]
B1	101						
B2	290						
B3	526						
B4	11						
B5		91	96	215	236	378	245
B6	4200						
B7	2120						
B8	1390						
B9	452						
B10	180						
B11	1320						
B12	470						
B13	408						
B14	201						
B15	73						
B16	215						

target: gelatinase B (UniProt P14780 107-707, limits assumed); test: cell-based or functional assay
Sequence (P14780 107-707 limits assumed): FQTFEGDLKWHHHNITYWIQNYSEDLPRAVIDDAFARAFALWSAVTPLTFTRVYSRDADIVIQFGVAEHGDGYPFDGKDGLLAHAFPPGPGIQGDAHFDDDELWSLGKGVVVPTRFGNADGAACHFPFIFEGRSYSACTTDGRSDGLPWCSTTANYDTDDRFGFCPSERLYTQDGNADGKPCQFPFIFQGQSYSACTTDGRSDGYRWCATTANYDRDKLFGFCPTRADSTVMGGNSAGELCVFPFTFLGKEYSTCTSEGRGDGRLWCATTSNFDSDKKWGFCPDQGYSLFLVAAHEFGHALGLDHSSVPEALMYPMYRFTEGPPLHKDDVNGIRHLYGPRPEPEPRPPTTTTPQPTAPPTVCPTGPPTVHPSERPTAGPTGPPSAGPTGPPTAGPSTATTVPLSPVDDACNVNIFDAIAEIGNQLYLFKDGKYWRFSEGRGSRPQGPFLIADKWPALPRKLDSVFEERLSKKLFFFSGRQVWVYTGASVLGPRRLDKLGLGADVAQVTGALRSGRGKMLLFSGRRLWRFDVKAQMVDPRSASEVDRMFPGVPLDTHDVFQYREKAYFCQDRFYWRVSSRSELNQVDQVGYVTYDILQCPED

Binder	Selectivity v. Coll-3 [unitless]	Selectivity v. Coll-3, + 1:1 Gelatin [unitless]	Selectivity v. Coll-3, + 1:4 Gelatin [unitless]	Selectivity v. Coll-3, + 1:16 Gelatin [unitless]	Selectivity v. Coll-3, + 1:64 Gelatin [unitless]	Selectivity v. Coll-3, + 1:256 Gelatin [unitless]	Selectivity v. Coll-3, + H2O [unitless]
B1	4						
B2	1						
B3	4						
B4	1						
B5		5	5	13	13	18	2
B6	4						
B7	2						
B8	3						
B9	4						
B10	15						
B11	2						
B12	4						
B13	3						
B14	3						
B15	1						
B16	1						

target: stromelysin 1 (UniProt P08254 100-477, limits assumed); test: cell-based or functional assay
Sequence (P08254 100-477 limits assumed): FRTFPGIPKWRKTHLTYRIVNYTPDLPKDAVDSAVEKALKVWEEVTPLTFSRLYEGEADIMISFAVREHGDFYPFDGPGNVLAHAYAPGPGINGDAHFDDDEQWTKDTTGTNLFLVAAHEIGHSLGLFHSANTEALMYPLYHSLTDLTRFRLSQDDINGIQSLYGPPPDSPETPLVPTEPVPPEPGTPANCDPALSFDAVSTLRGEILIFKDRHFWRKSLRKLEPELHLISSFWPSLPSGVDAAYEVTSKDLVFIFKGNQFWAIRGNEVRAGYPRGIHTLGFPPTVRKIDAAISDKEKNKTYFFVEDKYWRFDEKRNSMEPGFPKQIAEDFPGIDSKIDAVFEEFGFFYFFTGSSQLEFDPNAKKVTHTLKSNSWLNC

Binder	Selectivity v. Coll-3 [unitless]
B1	824
B2	311
B3	287
B7	510
B8	770
B9	468
B10	1110
B12	831
B13	1380
B16	835
